Experiment [1] has as its target T1, hAPJ (Homo sapiens, UniProt P35414).
T1 construct: expressed in transfected cells; host or cells: CHO-DHFR- cells expressing hAPJ and a CRE-luciferase reporter
T1 sequence (P35414 1-380): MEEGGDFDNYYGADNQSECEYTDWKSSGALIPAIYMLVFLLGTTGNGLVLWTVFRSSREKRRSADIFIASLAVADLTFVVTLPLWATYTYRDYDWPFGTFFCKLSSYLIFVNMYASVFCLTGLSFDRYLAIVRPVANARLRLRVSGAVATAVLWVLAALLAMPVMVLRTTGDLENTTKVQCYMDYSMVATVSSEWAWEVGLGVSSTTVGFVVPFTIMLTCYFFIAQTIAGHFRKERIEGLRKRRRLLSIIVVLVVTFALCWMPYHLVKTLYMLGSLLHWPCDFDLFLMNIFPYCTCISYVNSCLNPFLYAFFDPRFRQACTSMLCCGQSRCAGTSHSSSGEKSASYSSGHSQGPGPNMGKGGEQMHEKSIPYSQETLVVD
The experiment is described as follows: Reporter gene assay (hAPJ-CRE-Luciferase CHO-DHFR- cells) of in vitro activation of Elabela/APJ signaling pathway. The format is cell-based. As to conditions: for EC50: 0.6 μM forskolin, 6 hours at 37° C., Bright Glo readout; for blocking or activation of APJ receptor by the antibody: reporter gene assay. How it is done: 35000 hAPJ-CRE-Luciferase expressing CHO-DHFR-cells per well were seeded into 96 well plate, and cultured overnight at 37° C. The culture supernatant was removed the second day, cells were washed twice with serum-free medium, and the residue liquid was aspirated. 50 μL of 0.6 μM forskolin was added in 96 well plate in advance, then 50 μL of Elabela fusion protein or Elabela-11 polypeptide diluted in serum-free medium was added, and incubated at 37° C. for 6 hours. After stimulation, 100 μL Bright Glo chemical luminescence substrate (Promega) was added, then the cell lysate was transferred to white 96 well plate, and the relative intensity of […] was read in the SpectraMax L (Molecular Devices). The data were fitted with prism5.0 and EC50 was calculated.

The target of experiment [2] is T1, hAPJ. In words: FACS analysis of binding of APJ antibodies to CHO-DHFR-hAPJ cells. The settings on record: mouse ascites antibody at 500 nM and 4 nM on CHO-DHFR-hAPJ; negative control 500 nM on blank CHO-DHFR- cells. How it is done: PBS containing EDTA was used to detach and collect 10^5 CHO-DHFR-hAPJ cells into 1.5 mL EP tubes. The supernatant was removed after centrifugation. The negative control sample was resuspended with a FACS loading buffer (PBS, 2% FBS). For the positive control, 200 μL antibody supernatant with certain concentration was added to resuspend cells and then incubated at room temperature; the cells were then centrifuged at 1500 rpm to remove the supernatant, washed with a FACS loading buffer and centrifuged again. The cells were resuspended followed by addition (200 μL/well) of a FITC labeled goat anti-mouse fluorescent secondary antibody at 1:50 dilution and incubated at room temperature for 30 min in the dark. Supernatant was removed after centrifugation, cells were washed with FACS loading buffer, centrifuged again and resuspended with the loading buffer for analysis.
(In general: A flow cytometer gives signals particle by particle.)

Where no end group is shown, it is not given here.

Consider “L5H5 and Linker2-EA3: fusion protein of hAPJ antibody L5H5 and Linker2-EA3 (comprising SEQ ID NO: 123 and SEQ ID NO: 109) (GGGGSGGGGSQRRCMPLHSRVPMPF; also: fused to hAPJ antibody L5H5)”, for which the concentration giving a half-maximal response (EC50) in the experiment with hAPJ [1] worked out at 20.3 nM; in the experiment with hAPJ [1] (listed as L5H5 and linker2-EA3), 20.3 nM.

Turning to “L5H5 and Linker2-EA4: fusion protein of hAPJ antibody L5H5 and Linker2-EA4 (comprising SEQ ID NO: 123 and SEQ ID NO: 116) (GGGGSGGGGSQRRCLSHKGPMPF; also: fused to hAPJ antibody L5H5)”, the EC50 in the experiment with hAPJ [1] was determined as 5.4 nM; with hAPJ [1] (listed as L5H5 and linker2-EA4), 5.43 nM.

“L5H5 and Linker2-EA5: fusion protein of hAPJ antibody L5H5 and Linker2-EA5 (comprising SEQ ID NO: 123 and SEQ ID NO: 94) (GGGGSGGGGSQRRCMPLHSRVPAP; also: fused to hAPJ antibody L5H5)”: the 50% effective concentration (EC50) stood at 2.6 nM with hAPJ [1]; 2.55 nM with hAPJ [1] (listed as L5H5 and linker2-EA5).

B1: L1H1: APJ antibody with light chain variable domain SEQ ID NO: 59 and heavy chain variable domain SEQ ID NO: 64 (antibody, listed as Mus musculus, V domains shown)
VH: EVQLIETGGGLVQPTGSLQLSCAASGFPFNINAMNWVRQAPGKGLEWVARIRSKSNNYATYYADSVKDRFTISRDDSQSILYLQMNNLKTEDSAMYFCVRGPYLYAMDYWGQGTSVTVSS
VL: DIQMNQSPSSLSASLGDTITITCHASQNIHVWLSWYQQKPGNIPKLLIYKASNLHTGVPSRFSGSGSGTGFTLTISSLQPEDIATYYCQQGHSYPLTFGGGTKLEIKR
In the case of B1, the “specific binding to hAPJ (FACS peak shift versus negative control)” value in the experiment with hAPJ [2] was “shifted to the right obviously”. In the experiment with hAPJ [1], the “blocking or activation of APJ receptor by the antibody” value is “did not block or activate APJ receptor”.

B2: L4H4: APJ antibody with light chain variable domain SEQ ID NO: 62 and heavy chain variable domain SEQ ID NO: 67 (antibody, listed as Mus musculus, V domains shown)
VH: EIKLVESGGGLVKPRGSLKLSCAASGFTFSSYAMSWVRQTPEKRLEWVASISSGGSIYLPDSLKGRFTISRDNAWNILYLQMNSLKSEDTAMYYCTRGRGNSSAWFAYWGQGTLVTVSA
VL: DVLMTQTPLSLPVSLGDQASISCRSDQSLVHRTGNTHLDWYLQKPGQSPKLLIYKVSNRFSGVPDRFSGSGSGTDFTLKISRVEAEDLGVYYCFQASHIPFTFGSGTKLEIKR
Regarding B2, in the experiment with hAPJ [2], the “specific binding to hAPJ (FACS peak shift versus negative control)” value is “shifted to the right obviously”. Moreover, the “blocking or activation of APJ receptor by the antibody” value with hAPJ [1] is “did not block or activate APJ receptor”.

As a reminder, the EC50 is the concentration that produces a half-maximal response. Low values mean greater potency, high ones weaker potency.

These data come from patent US12221488B2, “APJ antibody, fusion protein thereof with Elabela, and pharmaceutical compositions and use thereofus01” (GMAX BIOPHARM LLC, priority 2018, dated 2025).
